Measurements published in patent US20260015399A1 (Boehringer Ingelheim, published 2026).
*1 amine or outer side, *2 acyl side, *3 side chain or, on linkers, in order; H or OH if unused. Side-chain parts run from the residue outwards. The star is where a group is joined. C18 diacid = O=C(O)CCCCCCCCCCCCCCCCC(=O)*; γGlu = O=C(O)[C@H](CCC(=O)[*:2])N[*:1]; Isovaleryl = CC(C)CC(=O)*; Ahx = NCCCCCC(=O)O

T1: human NPY2 receptor (human, UniProt P49146 1-381)
T1 construct: whole, on cells; also called hNPY2-R; hNPY2R
T1 sequence (looked up): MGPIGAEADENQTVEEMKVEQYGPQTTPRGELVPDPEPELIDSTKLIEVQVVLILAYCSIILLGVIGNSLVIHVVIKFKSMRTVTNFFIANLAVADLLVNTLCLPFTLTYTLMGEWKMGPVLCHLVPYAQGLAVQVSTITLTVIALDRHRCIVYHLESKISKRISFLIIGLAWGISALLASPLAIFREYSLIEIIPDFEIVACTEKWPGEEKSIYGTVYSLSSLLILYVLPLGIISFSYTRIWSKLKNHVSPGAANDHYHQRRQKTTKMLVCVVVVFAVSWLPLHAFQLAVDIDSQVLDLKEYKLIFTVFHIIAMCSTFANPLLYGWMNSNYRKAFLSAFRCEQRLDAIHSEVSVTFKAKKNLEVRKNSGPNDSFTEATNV

B1: Compound 80 (peptide)
peptide: Isovaleryl-APEK([Ahx-γGlu-C18 diacid])PEEDASEAELQRYYVSLRHYYNWLTRQRY-NH2
SMILES: CC(C)CC(=O)N[C@@H](C)C(=O)N1CCC[C@H]1C(=O)N[C@@H](CCC(=O)O)C(=O)N[C@@H](CCCCNC(=O)CCCCCNC(=O)CC[C@H](NC(=O)CCCCCCCCCCCCCCCCC(=O)O)C(=O)O)C(=O)N1CCC[C@H]1C(=O)N[C@@H](CCC(=O)O)C(=O)N[C@@H](CCC(=O)O)C(=O)N[C@@H](CC(=O)O)C(=O)N[C@@H](C)C(=O)N[C@@H](CO)C(=O)N[C@@H](CCC(=O)O)C(=O)N[C@@H](C)C(=O)N[C@@H](CCC(=O)O)C(=O)N[C@@H](CC(C)C)C(=O)N[C@@H](CCC(N)=O)C(=O)N[C@@H](CCCNC(=N)N)C(=O)N[C@@H](Cc1ccc(O)cc1)C(=O)N[C@@H](Cc1ccc(O)cc1)C(=O)N[C@H](C(=O)N[C@@H](CO)C(=O)N[C@@H](CC(C)C)C(=O)N[C@@H](CCCNC(=N)N)C(=O)N[C@@H](Cc1c[nH]cn1)C(=O)N[C@@H](Cc1ccc(O)cc1)C(=O)N[C@@H](Cc1ccc(O)cc1)C(=O)N[C@@H](CC(N)=O)C(=O)N[C@@H](Cc1c[nH]c2ccccc12)C(=O)N[C@@H](CC(C)C)C(=O)N[C@H](C(=O)N[C@@H](CCCNC(=N)N)C(=O)N[C@@H](CCC(N)=O)C(=O)N[C@@H](CCCNC(=N)N)C(=O)N[C@@H](Cc1ccc(O)cc1)C(N)=O)[C@@H](C)O)C(C)C
B2: Compound 86 (peptide)
peptide: Isovaleryl-APEK([Ahx-γGlu-C18 diacid])PEEDATPEEIQRYYASLRHYYNWLTRQRY-NH2
SMILES: CC[C@H](C)[C@H](NC(=O)[C@H](CCC(=O)O)NC(=O)[C@H](CCC(=O)O)NC(=O)[C@@H]1CCCN1C(=O)[C@@H](NC(=O)[C@H](C)NC(=O)[C@H](CC(=O)O)NC(=O)[C@H](CCC(=O)O)NC(=O)[C@H](CCC(=O)O)NC(=O)[C@@H]1CCCN1C(=O)[C@H](CCCCNC(=O)CCCCCNC(=O)CC[C@H](NC(=O)CCCCCCCCCCCCCCCCC(=O)O)C(=O)O)NC(=O)[C@H](CCC(=O)O)NC(=O)[C@@H]1CCCN1C(=O)[C@H](C)NC(=O)CC(C)C)[C@@H](C)O)C(=O)N[C@@H](CCC(N)=O)C(=O)N[C@@H](CCCNC(=N)N)C(=O)N[C@@H](Cc1ccc(O)cc1)C(=O)N[C@@H](Cc1ccc(O)cc1)C(=O)N[C@@H](C)C(=O)N[C@@H](CO)C(=O)N[C@@H](CC(C)C)C(=O)N[C@@H](CCCNC(=N)N)C(=O)N[C@@H](Cc1c[nH]cn1)C(=O)N[C@@H](Cc1ccc(O)cc1)C(=O)N[C@@H](Cc1ccc(O)cc1)C(=O)N[C@@H](CC(N)=O)C(=O)N[C@@H](Cc1c[nH]c2ccccc12)C(=O)N[C@@H](CC(C)C)C(=O)N[C@H](C(=O)N[C@@H](CCCNC(=N)N)C(=O)N[C@@H](CCC(N)=O)C(=O)N[C@@H](CCCNC(=N)N)C(=O)N[C@@H](Cc1ccc(O)cc1)C(N)=O)[C@@H](C)O
B3: Compound 82 (peptide)
peptide: Isovaleryl-APAK([Ahx-γGlu-C18 diacid])PPEDASPEEIQRYYVSLRHYYNWLTRQRY-NH2
SMILES: CC[C@H](C)[C@H](NC(=O)[C@H](CCC(=O)O)NC(=O)[C@H](CCC(=O)O)NC(=O)[C@@H]1CCCN1C(=O)[C@H](CO)NC(=O)[C@H](C)NC(=O)[C@H](CC(=O)O)NC(=O)[C@H](CCC(=O)O)NC(=O)[C@@H]1CCCN1C(=O)[C@@H]1CCCN1C(=O)[C@H](CCCCNC(=O)CCCCCNC(=O)CC[C@H](NC(=O)CCCCCCCCCCCCCCCCC(=O)O)C(=O)O)NC(=O)[C@H](C)NC(=O)[C@@H]1CCCN1C(=O)[C@H](C)NC(=O)CC(C)C)C(=O)N[C@@H](CCC(N)=O)C(=O)N[C@@H](CCCNC(=N)N)C(=O)N[C@@H](Cc1ccc(O)cc1)C(=O)N[C@@H](Cc1ccc(O)cc1)C(=O)N[C@H](C(=O)N[C@@H](CO)C(=O)N[C@@H](CC(C)C)C(=O)N[C@@H](CCCNC(=N)N)C(=O)N[C@@H](Cc1c[nH]cn1)C(=O)N[C@@H](Cc1ccc(O)cc1)C(=O)N[C@@H](Cc1ccc(O)cc1)C(=O)N[C@@H](CC(N)=O)C(=O)N[C@@H](Cc1c[nH]c2ccccc12)C(=O)N[C@@H](CC(C)C)C(=O)N[C@H](C(=O)N[C@@H](CCCNC(=N)N)C(=O)N[C@@H](CCC(N)=O)C(=O)N[C@@H](CCCNC(=N)N)C(=O)N[C@@H](Cc1ccc(O)cc1)C(N)=O)[C@@H](C)O)C(C)C
B4: Compound 83 (peptide)
peptide: Isovaleryl-APEK([Ahx-γGlu-C18 diacid])PEEDATSEELQRYYVSLRHYYNWLTRQRY-NH2
SMILES: CC(C)CC(=O)N[C@@H](C)C(=O)N1CCC[C@H]1C(=O)N[C@@H](CCC(=O)O)C(=O)N[C@@H](CCCCNC(=O)CCCCCNC(=O)CC[C@H](NC(=O)CCCCCCCCCCCCCCCCC(=O)O)C(=O)O)C(=O)N1CCC[C@H]1C(=O)N[C@@H](CCC(=O)O)C(=O)N[C@@H](CCC(=O)O)C(=O)N[C@@H](CC(=O)O)C(=O)N[C@@H](C)C(=O)N[C@H](C(=O)N[C@@H](CO)C(=O)N[C@@H](CCC(=O)O)C(=O)N[C@@H](CCC(=O)O)C(=O)N[C@@H](CC(C)C)C(=O)N[C@@H](CCC(N)=O)C(=O)N[C@@H](CCCNC(=N)N)C(=O)N[C@@H](Cc1ccc(O)cc1)C(=O)N[C@@H](Cc1ccc(O)cc1)C(=O)N[C@H](C(=O)N[C@@H](CO)C(=O)N[C@@H](CC(C)C)C(=O)N[C@@H](CCCNC(=N)N)C(=O)N[C@@H](Cc1c[nH]cn1)C(=O)N[C@@H](Cc1ccc(O)cc1)C(=O)N[C@@H](Cc1ccc(O)cc1)C(=O)N[C@@H](CC(N)=O)C(=O)N[C@@H](Cc1c[nH]c2ccccc12)C(=O)N[C@@H](CC(C)C)C(=O)N[C@H](C(=O)N[C@@H](CCCNC(=N)N)C(=O)N[C@@H](CCC(N)=O)C(=O)N[C@@H](CCCNC(=N)N)C(=O)N[C@@H](Cc1ccc(O)cc1)C(N)=O)[C@@H](C)O)C(C)C)[C@@H](C)O
B5: Compound 81 (peptide)
peptide: Isovaleryl-APEK([Ahx-γGlu-C18 diacid])PEEDAQPEEIQRYYVSLRHYYNWLTRQRY-NH2
SMILES: CC[C@H](C)[C@H](NC(=O)[C@H](CCC(=O)O)NC(=O)[C@H](CCC(=O)O)NC(=O)[C@@H]1CCCN1C(=O)[C@H](CCC(N)=O)NC(=O)[C@H](C)NC(=O)[C@H](CC(=O)O)NC(=O)[C@H](CCC(=O)O)NC(=O)[C@H](CCC(=O)O)NC(=O)[C@@H]1CCCN1C(=O)[C@H](CCCCNC(=O)CCCCCNC(=O)CC[C@H](NC(=O)CCCCCCCCCCCCCCCCC(=O)O)C(=O)O)NC(=O)[C@H](CCC(=O)O)NC(=O)[C@@H]1CCCN1C(=O)[C@H](C)NC(=O)CC(C)C)C(=O)N[C@@H](CCC(N)=O)C(=O)N[C@@H](CCCNC(=N)N)C(=O)N[C@@H](Cc1ccc(O)cc1)C(=O)N[C@@H](Cc1ccc(O)cc1)C(=O)N[C@H](C(=O)N[C@@H](CO)C(=O)N[C@@H](CC(C)C)C(=O)N[C@@H](CCCNC(=N)N)C(=O)N[C@@H](Cc1c[nH]cn1)C(=O)N[C@@H](Cc1ccc(O)cc1)C(=O)N[C@@H](Cc1ccc(O)cc1)C(=O)N[C@@H](CC(N)=O)C(=O)N[C@@H](Cc1c[nH]c2ccccc12)C(=O)N[C@@H](CC(C)C)C(=O)N[C@H](C(=O)N[C@@H](CCCNC(=N)N)C(=O)N[C@@H](CCC(N)=O)C(=O)N[C@@H](CCCNC(=N)N)C(=O)N[C@@H](Cc1ccc(O)cc1)C(N)=O)[C@@H](C)O)C(C)C
B6: Compound 85 (peptide)
peptide: Isovaleryl-APAK([Ahx-γGlu-C18 diacid])PEEDASPEETQRYYVSLRHYYNWLTRQRY-NH2
SMILES: CC(C)CC(=O)N[C@@H](C)C(=O)N1CCC[C@H]1C(=O)N[C@@H](C)C(=O)N[C@@H](CCCCNC(=O)CCCCCNC(=O)CC[C@H](NC(=O)CCCCCCCCCCCCCCCCC(=O)O)C(=O)O)C(=O)N1CCC[C@H]1C(=O)N[C@@H](CCC(=O)O)C(=O)N[C@@H](CCC(=O)O)C(=O)N[C@@H](CC(=O)O)C(=O)N[C@@H](C)C(=O)N[C@@H](CO)C(=O)N1CCC[C@H]1C(=O)N[C@@H](CCC(=O)O)C(=O)N[C@@H](CCC(=O)O)C(=O)N[C@H](C(=O)N[C@@H](CCC(N)=O)C(=O)N[C@@H](CCCNC(=N)N)C(=O)N[C@@H](Cc1ccc(O)cc1)C(=O)N[C@@H](Cc1ccc(O)cc1)C(=O)N[C@H](C(=O)N[C@@H](CO)C(=O)N[C@@H](CC(C)C)C(=O)N[C@@H](CCCNC(=N)N)C(=O)N[C@@H](Cc1c[nH]cn1)C(=O)N[C@@H](Cc1ccc(O)cc1)C(=O)N[C@@H](Cc1ccc(O)cc1)C(=O)N[C@@H](CC(N)=O)C(=O)N[C@@H](Cc1c[nH]c2ccccc12)C(=O)N[C@@H](CC(C)C)C(=O)N[C@H](C(=O)N[C@@H](CCCNC(=N)N)C(=O)N[C@@H](CCC(N)=O)C(=O)N[C@@H](CCCNC(=N)N)C(=O)N[C@@H](Cc1ccc(O)cc1)C(N)=O)[C@@H](C)O)C(C)C)[C@@H](C)O

Molecular target: T1, human NPY2 receptor
Assay: RLB: displacement of 125I-PYY(1-36) from hNPY2R membranes

| Binder | Ki |
| --- | --- |
| B1 | 4.62 nM |
| B2 | 4.33 nM |
| B3 | 0.58 nM |
| B4 | 6.91 nM |
| B5 | 2.65 nM |
| B6 | 1.61 nM |
